Measured values taken from publication doi:10.1101/2025.09.25.678639, “The DND1–NANOS3 complex shapes the primordial germ cell transcriptome via a heptanucleotide sequence in mRNA 3′ UTRs”.

B1: N3mut (ssRNA)
RNA: AUAUGACUCU
B2: spacer (ssRNA)
RNA: AUAUGACCCAUUU
B3: CDK1 N3-DRE (Cy5) (ssRNA)
RNA: AUAUGAAUUU
B4: G3U (ssRNA)
RNA: AUAUUAAUUU
B5: D1mut (ssRNA)
RNA: AUGCCAAUUU
B6: G3A (ssRNA)
RNA: AUAUAAAUUU
B7: D1-N3mut (ssRNA)
RNA: AUGCCACUCU
B8: G3C (ssRNA)
RNA: AUAUCAAUUU

Assays:
[1] = target: DND1 1-230 (RRM1-RRM2);NANOS3 ZF+C (human;human, UniProt Q8IYX4;P60323 1-230;55-173, |); test: MST; DND1 titrated, 2 uM NANOS3 ZF+C; MST: 20 mM HEPES pH 7.4, 150 mM NaCl, 1 mM DTT, 0.05% Tween20 and 10 ug/mL yeast tRNA after 1:1 mixing, 5 nM Cy5-RNA, partner 2 uM final, 30 min at room temperature, measured at 25 C; settings: protein: recombinant;recombinant; tags: His6-SUMO removed by Ulp1; N-terminal Ser (residue 0) from BamHI site;His6-SUMO removed by Ulp1; N-terminal Ser (residue 54) from BamHI site; copies: 1;1; label: 5'-Cy5
DND1 1-230 (RRM1-RRM2);NANOS3 ZF+C, sequence (P60323 55-173, chain 2 of 2, one chain of several): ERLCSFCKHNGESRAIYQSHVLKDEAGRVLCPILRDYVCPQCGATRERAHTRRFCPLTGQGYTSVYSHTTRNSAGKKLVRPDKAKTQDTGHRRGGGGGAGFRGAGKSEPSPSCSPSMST

DND1 1-230 (RRM1-RRM2) = target: T1, DND1 1-230 (RRM1-RRM2) (human, UniProt Q8IYX4 1-230); test: MST; MST: 20 mM HEPES pH 7.4, 150 mM NaCl, 1 mM DTT, 0.05% Tween20 and 10 ug/mL yeast tRNA after 1:1 mixing, 5 nM Cy5-RNA, partner 2 uM final, 30 min at room temperature, measured at 25 C; settings: protein: recombinant; tags: His6-SUMO removed by Ulp1; N-terminal Ser (residue 0) from BamHI site; label: 5'-Cy5
T1 sequence: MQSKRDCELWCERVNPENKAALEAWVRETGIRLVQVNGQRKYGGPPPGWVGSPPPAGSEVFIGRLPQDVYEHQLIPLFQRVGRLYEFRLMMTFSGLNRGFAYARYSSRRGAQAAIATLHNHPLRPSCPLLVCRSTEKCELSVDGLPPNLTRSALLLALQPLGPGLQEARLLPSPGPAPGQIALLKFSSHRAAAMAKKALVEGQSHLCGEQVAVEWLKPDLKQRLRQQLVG

DND1 F93A;NANOS3 ZF+C = DND1 F93A;NANOS3 ZF+C (human;human, UniProt Q8IYX4;P60323 1-230;55-173, F93A|); test: MST; DND1 titrated, 2 uM NANOS3 ZF+C; MST: 20 mM HEPES pH 7.4, 150 mM NaCl, 1 mM DTT, 0.05% Tween20 and 10 ug/mL yeast tRNA after 1:1 mixing, 5 nM Cy5-RNA, partner 2 uM final, 30 min at room temperature, measured at 25 C; settings: protein: recombinant;recombinant; tags: His6-SUMO removed by Ulp1;His6-SUMO removed by Ulp1; N-terminal Ser (residue 54) from BamHI site; copies: 1;1; label: 5'-Cy5
DND1 F93A;NANOS3 ZF+C, sequence (Q8IYX4 1-230 F93A, chain 1 of 2): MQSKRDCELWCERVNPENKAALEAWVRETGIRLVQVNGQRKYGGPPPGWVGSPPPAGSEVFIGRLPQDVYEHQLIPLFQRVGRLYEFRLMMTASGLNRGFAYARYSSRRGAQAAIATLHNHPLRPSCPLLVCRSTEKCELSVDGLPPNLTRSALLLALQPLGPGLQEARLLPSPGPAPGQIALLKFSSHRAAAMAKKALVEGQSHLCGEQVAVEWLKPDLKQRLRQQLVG
DND1 F93A;NANOS3 ZF+C, sequence (P60323 55-173, chain 2 of 2): as the sequence (P60323 55-173, chain 2 of 2, one chain of several) above

DND1 H189A;NANOS3 ZF+C = DND1 H189A;NANOS3 ZF+C (human;human, UniProt Q8IYX4;P60323 1-230;55-173, H189A|); test: as above; settings: protein: recombinant;recombinant; tags: His6-SUMO removed by Ulp1;His6-SUMO removed by Ulp1; N-terminal Ser (residue 54) from BamHI site; copies: 1;1; label: 5'-Cy5
DND1 H189A;NANOS3 ZF+C, sequence (P60323 55-173, stated change not applied, one chain of several): as the sequence (P60323 55-173, chain 2 of 2, one chain of several) above

[2] = target: DND1 13-230 (del1-12);NANOS3 ZF (ZF1-ZF2) (human;human, UniProt Q8IYX4;P60323 13-230;55-113, del1-12|); test: MST; DND1 titrated, 2 uM NANOS3 ZF; MST: 20 mM HEPES pH 7.4, 150 mM NaCl, 1 mM DTT, 0.05% Tween20 and 10 ug/mL yeast tRNA after 1:1 mixing, 5 nM Cy5-RNA, partner 2 uM final, 30 min at room temperature, measured at 25 C; settings: protein: recombinant;recombinant; tags: His6-SUMO removed by Ulp1;His6-SUMO removed by Ulp1; N-terminal Ser (residue 54) from BamHI site; copies: 1;1; label: 5'-Cy5
DND1 13-230 (del1-12);NANOS3 ZF (ZF1-ZF2), sequence (P60323 55-113, stated change not applied, chain 2 of 2, one chain of several): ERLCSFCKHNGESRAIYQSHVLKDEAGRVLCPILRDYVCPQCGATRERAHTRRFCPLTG

DND1 13-230 (del1-12) = target: T2, DND1 13-230 (del1-12) (human, UniProt Q8IYX4 13-230, del1-12); test: MST; MST: 20 mM HEPES pH 7.4, 150 mM NaCl, 1 mM DTT, 0.05% Tween20 and 10 ug/mL yeast tRNA after 1:1 mixing, 5 nM Cy5-RNA, partner 2 uM final, 30 min at room temperature, measured at 25 C; settings: protein: recombinant; tags: His6-SUMO removed by Ulp1; label: 5'-Cy5
T2 sequence: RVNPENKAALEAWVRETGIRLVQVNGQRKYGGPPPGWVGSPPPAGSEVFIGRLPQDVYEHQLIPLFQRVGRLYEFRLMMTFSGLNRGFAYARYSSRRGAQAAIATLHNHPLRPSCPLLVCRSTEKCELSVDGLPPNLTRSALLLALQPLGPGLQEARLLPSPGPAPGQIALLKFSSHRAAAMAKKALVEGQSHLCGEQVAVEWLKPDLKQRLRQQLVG

DND1 K196A;NANOS3 ZF+C = DND1 K196A;NANOS3 ZF+C (human;human, UniProt Q8IYX4;P60323 1-230;55-173, K196A|); test: MST; DND1 titrated, 2 uM NANOS3 ZF+C; MST: 20 mM HEPES pH 7.4, 150 mM NaCl, 1 mM DTT, 0.05% Tween20 and 10 ug/mL yeast tRNA after 1:1 mixing, 5 nM Cy5-RNA, partner 2 uM final, 30 min at room temperature, measured at 25 C; settings: protein: recombinant;recombinant; tags: His6-SUMO removed by Ulp1;His6-SUMO removed by Ulp1; N-terminal Ser (residue 54) from BamHI site; copies: 1;1; label: 5'-Cy5
DND1 K196A;NANOS3 ZF+C, sequence (Q8IYX4 1-230 K196A, chain 1 of 2): as the sequence (Q8IYX4 1-230 F93A, chain 1 of 2) above, with A93F, K196A counted along it
DND1 K196A;NANOS3 ZF+C, sequence (P60323 55-173, chain 2 of 2): as the sequence (P60323 55-173, chain 2 of 2, one chain of several) above

Row | Binder | Kd [1] [µM] | Kd (DND1 1-230 (RRM1-RRM2)) [µM] | Kd (DND1 K196A;NANOS3 ZF+C) [µM] | other results
1 | B1 | 2.7 ± 1.1 | 6.4 ± 3.8 | – | –
2 | B2 | – | 8.2 ± 3.6 | – | –
3 | B3 | – | – | – | Kd (DND1 F93A;NANOS3 ZF+C): 1.1 ± 0.4 µM; Kd (DND1 H189A;NANOS3 ZF+C): 0.16 ± 0.05 µM; Kd [2]: 4 ± 2.4 µM; Kd (DND1 13-230 (del1-12)): 3.7 ± 1.4 µM
4 | B4 | – | – | 0.13 ± 0.02 | –
5 | B5 | 15 ± 7.7 | 15 ± 4.7 | – | –
6 | B6 | – | – | 0.17 ± 0.04 | –
7 | B7 | 12 ± 3 | 11 ± 2.1 | – | –
8 | B8 | – | – | 0.31 ± 0.09 | –
